In assay [1] the target is E. faecalis RNase J1 (Enterococcus faecalis (strain OG1RF)). Briefly: SPR; Biacore T100; E. faecalis RNase J1 immobilized on a CM5 sensor surface; J2 proteins 400 to 50 nM in duplicate; fitted to the 1:1 binding model.
The target in assay [2] is RNase J2 (Bacillus subtilis) (UniProt O31760). Conditions: cited from earlier work.

RNase J1, sequence (Q45493 whole entry): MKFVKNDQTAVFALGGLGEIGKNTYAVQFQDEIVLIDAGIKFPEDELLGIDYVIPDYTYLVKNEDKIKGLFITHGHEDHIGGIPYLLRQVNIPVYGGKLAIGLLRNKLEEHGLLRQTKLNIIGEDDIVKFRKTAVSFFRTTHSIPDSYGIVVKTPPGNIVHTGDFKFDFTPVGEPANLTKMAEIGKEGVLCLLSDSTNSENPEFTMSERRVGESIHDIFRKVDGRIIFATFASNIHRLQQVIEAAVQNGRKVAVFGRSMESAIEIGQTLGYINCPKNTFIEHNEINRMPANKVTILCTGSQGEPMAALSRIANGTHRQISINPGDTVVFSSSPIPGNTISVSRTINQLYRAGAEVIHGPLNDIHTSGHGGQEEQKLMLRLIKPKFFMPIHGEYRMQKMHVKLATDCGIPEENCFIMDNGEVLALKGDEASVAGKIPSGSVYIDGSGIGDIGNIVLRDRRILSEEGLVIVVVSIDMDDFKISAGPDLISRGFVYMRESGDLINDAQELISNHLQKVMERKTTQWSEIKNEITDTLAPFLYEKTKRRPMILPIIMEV

As for E. faecalis RNase J2 H69A (enzyme), the Kd in assay [1] was determined as 81 nM.

With E. faecalis RNase J2 H71A (enzyme), the Kd in assay [1] came to 89 nM.

As for RNase J1 (from UniProt Q45493), the Kd in assay [2] is 80 nM.
